The data set deals with the molecule itself. Description: cryo-EM structure.

B1: hGluD2(R710W), human GluD2 with the cerebellar ataxia mutation R710W (receptor, UniProt O43424-1 24-1007, looked up)
chain: DSIIHIGAIFDESAKKDDEVFRTAVGDLNQNEEILQTEKITFSVTFVDGNNPFQAVQEACELMNQGILALVSSIGCTSAGSLQSLADAMHIPHLFIQRSTAGTPRSGCGLTRSNRNDDYTLSVRPPVYLHDVILRVVTEYAWQKFIIFYDSEYDIRGIQEFLDKVSQQGMDVALQKVENNINKMITTLFDTMRIEELNRYRDTLRRAILVMNPATAKSFITEVVETNLVAFDCHWIIINEEINDVDVQELVRRSIGRLTIIRQTFPVPQNISQRCFRGNHRISSTLCDPKDPFAQNMEISNLYIYDTVLLLANAFHKKLEDRKWHSMASLSCIRKNSKPWQGGRSMLETIKKGGVSGLTGELEFGENGGNPNVHFEILGTNYGEELGRGVRKLGCWNPVTGLNGSLTDKKLENNMRGVVLRVVTVLEEPFVMVSENVLGKPKKYQGFSIDVLDALSNYLGFNYEIYVAPDHKYGSPQEDGTWNGLVGELVFKRADIGISALTITPDRENVVDFTTRYMDYSVGVLLRRAEKTVDMFACLAPFDLSLWACIAGTVLLVGLLVYLLNWLNPPRLQMGSMTSTTLYNSMWFVYGSFVQQGGEVPYTTLATRMMMGAWWLFALIVISSYTANLAAFLTITRIESSIQSLQDLSKQTEIPYGTVLDSAVYEHVRMKGLNPFERDSMYSQMWWMINRSNGSENNVLESQAGIQKVKYGNYAFVWDAAVLEYVAINDPDCSFYTIGNTVADRGYGIALQHGSPYRDVFSQRILELQQNGDMDILKHKWWPKNGQCDLYSSVDTKQKGGALDIKSFAGVFCILAAGIVLSCFIAMLETWWNKRKGSRVPSKEDDKEIDLEHLHRRVNSLCTDDDSPHKQFSTSSIDLTPLDIDTLPTRQALEQISDFRNTHITTTTFIPEQIQTLSRTLSAKAASGFTFGNVPEHRTGPFRHRAPNGGFFRSPIKTMSSIPYQPTPTLGLNLGNDPDRGTSI
As to B1, the binding result is on record as “binds”.

B2: hGluD2(ΔATD), human GluD2 with the amino-terminal domain deleted (receptor, UniProt O43424-1 24-1007, looked up)
chain: DSIDKKLENNMRGVVLRVVTVLEEPFVMVSENVLGKPKKYQGFSIDVLDALSNYLGFNYEIYVAPDHKYGSPQEDGTWNGLVGELVFKRADIGISALTITPDRENVVDFTTRYMDYSVGVLLRRAEKTVDMFACLAPFDLSLWACIAGTVLLVGLLVYLLNWLNPPRLQMGSMTSTTLYNSMWFVYGSFVQQGGEVPYTTLATRMMMGAWWLFALIVISSYTANLAAFLTITRIESSIQSLQDLSKQTEIPYGTVLDSAVYEHVRMKGLNPFERDSMYSQMWRMINRSNGSENNVLESQAGIQKVKYGNYAFVWDAAVLEYVAINDPDCSFYTIGNTVADRGYGIALQHGSPYRDVFSQRILELQQNGDMDILKHKWWPKNGQCDLYSSVDTKQKGGALDIKSFAGVFCILAAGIVLSCFIAMLETWWNKRKGSRVPSKEDDKEIDLEHLHRRVNSLCTDDDSPHKQFSTSSIDLTPLDIDTLPTRQALEQISDFRNTHITTTTFIPEQIQTLSRTLSAKAASGFTFGNVPEHRTGPFRHRAPNGGFFRSPIKTMSSIPYQPTPTLGLNLGNDPDRGTSI
For the protein B2, the binding result is listed as “binds”.

For the origin of these results see publication PMC12520249 (Nature, 2025).
